Source: a protein production outcome set (Wang et al. 2014)

Assay: label from the status in PepcDB records

Sequence	protein production
MDLKGGESMVDWKLMQEIIEAPGVSGYEHLGIRDIVVDVLKEVADEVKVDKLGNVIAHFKGSSPRIMVAAHMDKIGVMVNHIDKDGYLHIVPIGGVLPETLVAQRIRFFTEKGERYGVVGVLPPHLRRGQEDKGSKIDWDQIVVDVGASSKEEAEEMGFRVGTVGEFAPNFTRLNEHRFATPYLDDRICLYAMIEAARQLGDHEADIYIVGSVQEEVGLRGARVASYAINPEVGIAMDVTFAKQPHDKGKIVPELGKGPVMDVGPNINPKLRAFADEVAKKYEIPLQVEPSPRPTGTDANVMQINREGVATAVLSIPIRYMHSQVELADARDVDNTIKLAKALLEELKPMDFTP	not failed
MTRFWTRLIVVLTVILGVNYVAWRWMASLNWEAWWIAVPLVIAETYSLIDVMLFGLTVWNIKFRKPPPPPPADATVDVFITTYNEPLDLVMTTALAAKEIRWPHSTWILDDGDRPEMRELAESNGIGYVTRGADWTPDMPRHAKAGNLNNALMLTSGEYLLILDADQIPEPDILDKTLGYFNDDKVALVQTPQYFINVPADDPLGSQAPLFYGPIQQGKDGWNAAFFCGSNAILRREALMQLGLVGYVKATEKSVRRALAASRTAIRKARRSPEAENPLVEQMLNEVEAATESAQKELEAGASLSEITYRVRRQVDDAVRTLVAADFSALQSDLEEIAAMELAHVGESGVTTVATDAVDRMSGRDWSPLGALESVHAVLDAISVERTDEAQPIMPLATISVTEDMATAMRLHGLGWKSVYHHEILANGLAPEDVKTMLTQRLRWAQGTMQVLLRENPLVQRRLTWGQRLMYFSTMWTYLSGFAAVVYFAAPIIYLTLGILPVNSISSDFFIRFIPFMVVNQLLFLVAGHGIPTWRGQQYSLALFPTWIKACTTAARNVWFGRPLGFAVTPKARQSGGPSWSLIRPQIIVAVLLAVALIVGLIRLLAGMSEPLGTLVNVAWVAFDLVVLSVLVKAVLYKGFVPEVVGPERPEERNADAV	failed
MTVRTRVTDLLEIEHPILMGGMAWAGTPTLAAAVSEAGGLGIIGSGAMKPDDLRKAISELRQKTDKPFGVNIILVSPWADDLVKVCIEEKVPVVTFGAGNPTKYIRELKENGTKVIPVVASDSLARMVERAGADAVIAEGMESGGHIGEVTTFVLVNKVSRSVNIPVIAAGGIADGRGMAAAFALGAEAVQMGTRFVASVESDVHPVYKEKIVKASIRDTVVTGAKLGHPARVLRTPFARKIQEMEFENPMQAEEMLVGSLRRAVVEGDLERGSFMVGQSAGLIDEIKPVKQIIEDILKEFKETVEKLRGYIEE	not failed
MRKRARIIYNPTSGKELFKRVLPDALIKLEKAGYETSAYATEKIGDATFEAERALESEYDLLIAAGGDGTLNEVVNGIAEQPNRPKLGVIPMGTVNDFGRALHLPSDIMGAIDVIIDGHTTKVDIGKMNNRYFINLAAGGKLTQVSYETPSKLKSIVGPFAYYIKGFEMLPQMKAVDVRIEYDDNIFQGEALLFLLGLTNSMAGFEKLVPDAKLDDGYFTLIIVEKANLAELGHIMTLASRGEHTKHPKVIYAKAKSINISSFTDMQLNVDGEYGGKLPANFLNLEQHIEIFTPKDVFNEELLENDTITDITPDKQ	not failed
AGSATITYSVLEETDRGSLVGNLAKDLGLSLRELITRGAQILSKGNKQLLQLEQKSGNLLLKEKLDREELCGSTNPCILHFQVLLKSPVQFIQGEIQLQDVNDHAPEFMEDE	not failed
MSLIPKFREFDRERHRTDYQKGMSYAEQQDFDMGFTIWFDHIEDLDLIEKDGTINRIVMMSTGLKDKNVKEIYESDIVRNLYGELYVVEWLDGSFVLTEFYNGGYDHYIIDSSTEYEVLGNIYENPELLEDDNHASNEGHHHHHH	not failed
MRISFVGSGKVATHLAKAFAQQHQIIQIMSRNLPHAEKLAHQVGACAIDNYSQIEQEIDLLVIAVSDQSISSVIQAVHVFVPEQLIVHTSGSTDVKILSDIHSNAGVFYPLQTFSFERDIHWSDTPLLIEAEQANSLSILNALANSLTKRVYHYSSTQRLSLHLAAVFACNFSNYCYDMAKQTVDQAQVDFSLLYPLILETAKKATQHDPVQVQTGPAVRHDHNIVELHQNLLLKANRPDLKDIYQRLSQAIIARHHTQP	failed
EAERVSVEHTSANPTGPLHIGRARNSIIGDSIYRILSRYGYRTVRQYFVNDSGKQMISLYTAYIKYGGPITIENLLENYQKIYREMEKDQSIEKEIEKNIERYENADPEVFGTLRKIAGVMLDGIASTLKRIGIEFDEFDWESDLLLNGSVRKAIDMLETKEEDSARYIEISGKKVFLTRKDGTTLYFARDIAYHLFKAENSEWIIDVLGEDHKDHAKSLNHVLKEMLKLENRVSFMYYSFITLETGKMSTRRGNIVTLQDLVDRTYDEALKIVNEKRPDLSEEERKKIAEVIASSAVRYSIIRVSAPKPITFRWEEALNFESNSAPFIMYS	failed
MPRLAISRLWPMLTAVALLSPLATAQQGQTLRAGELTVTLTPTQPDSNGWYRAGRLELQGTDEGIRGVETSRLRGAVLGELSPDGRWLSVLGTGGGYVQLWNVATAERQFTFLAHDKKSYDARLAAFSPDSRRLVFYSYPNELSLWDTATGVRVKLLSDVRKGGWWTADADAVFSPDGKTFVVTGGGGGAQLFDTRTGDLLQTFDRPCQSFGPGSPGGFWRGAVGATFSADGKNVAVLYAGGAARLYGVAGAGALAKASWKLDNFKPSQMRFWAGKLTLNGRELSGKTPNGLSFTLTF	failed
MANSTESGSLQSSSTVKVRSHYRPNNGTGSPGGRPRPKRGFLPLGKGLVWGGLVTLTATVAAIAGVGIGFFTPGPKGLVQQVIPGQSAGVEAGQADLFPYHISRPVNILVMGIDRVEPTEEEPNVDEFGGRSDTMLLVRFDPRENGLKLLSIPRDTRVFIPDVGYTKINDANAYGGPQLAARVINRNLGEVPIDRYVRVTTDALQELVDLVGGVEVFVPRPMFYEDKTQQLLIDLPAGLQTLNGQQAEQFVRFRYDANGDIGRVQRQETLLKALQNRLSHPSMITRIPKAIGIMQKTVDTNLTMEEILALVNFGRQLDRQEVQMVMLPGRFSQPAEFDGRSYWVMSDVGKRQVLRNYFDVIEEVPTWAETPGRSPESLRIALQNATDDPQALERVKEYLQSKDFRNFYETSESPQLLAETKILVQRGDLDGAHYLRQTLGGGVVEASSVGDLGSDLTIQVGMDLDQWLKESTPVDDSTPQF	failed
MLSLKSEVLARHLPLFNGKSILLFGNVRDRFADQIRSISSHVAIFSHYFDYARHYNDVEFGLDCTTPANLGVFYWTKNKQECHYQLLQWLSQTAIGQQMLIIGENRAGVRSVEKLLSPFGQIAKIDSARRCGLYHFELQTIPQFDCQKFWKSYRLADLTVLSLPAAFSSTELDAGSQLLLSSFTNQDRLTGNVLDLGCGAGVIGAYLKQRFPAISLTMSDIHSMAIHSAQATLAKNKLTGTVIASDVFSHINDRFDLIVSNPPFHDDIDTAYHTVESLIMQAKNHLNYGGELRIVANAFLPYPDLLDKAFGSHQVVTKSNKFKVYSARV	failed
MKKISVKFNQKQIFFGIIGLLLLGIIGIFAYKLNEYFSEPVIKAKSINLDASPSPKSKIIERLKKDQKIKVLKKNNNTDWWQVEIGSQKGWVASWLIQKKNYNAKNAGRLAEATIVLDPGHGGVDSGTQASNGAMEKTYTLRTALKVYKLLKAKNVHVIMTRHTNKTVALASRPALSNRVKANIYISFHFNSAGEQNAAEGYEVFKYNHNANSFASTIDKQFNNLPLYNRGVSFGNFEVLRDNKRPAILVEMGFMDSDYDFSYIQKSSYQQKVANDVTKSLTSYFN	failed
MSEPVQLRQHGNAAVAMPLDALLAARTVWRAGQGRATVNGGESTGHAALDALLPDGGWPRRALTELLLPAHGIGEIALLLPTLARMTARGSRVVLVAPPFIPYAPAWQAGGVVLEHLEVVQAEPRAALWAFEQCLRSGACAAVLGWPQTGDARALRRLQVAADSGNCCAFALRDRRHAVNASPAALRLEFLPERDAWQVRKCRGGQVPSQPLRLAH	failed
MINKKTTSENRRILQIAVPSIISNITVPLLGLIDVTIVGHLGSPAYIGAIAVGGMLFNIIYWIFGFLRMGTSGMTSQAYGQHDLNEINRLLIRSVGVGLFIALCLLILQYPILNAAFTLIQTTEEVKQLATTYFYICIWGAPAMLGLYGFAGWFIGMQNSRFPMYIAITQNIVNIIASLSFVYLLDMKVAGVAAGTLIAQYAGFFMAILLYMRYYSTLRKRIVWKDIIQKQAMYRFFRVNRDIFFRTLCLVIVTMFFTSAGAAQGEVVLAVNTLLMQLFTLFSYIMDGFAYAGEALAGRYIGARNQTALRNTVNHLFYWGIGLSAAFTLLYAIGGKEFLGLLTNDVSVISSSDTYFYWALAIPLTGFSAFLWDGVFIGATATRQMLYSMLVASVSFFMIYYAFHNLLGNHALWLAFITYLSLRGIVQTFIGREIVKKAI	failed
MTENPEEDNKVFNYWWLAHLVEVRLDAYLRTKKQADLEVAEKTYLHNKNRNGGTLIHDFYDDMLWNALAAYRLYKATGKSIYLEDAQLVWQDLVDTGWNDIMGGGFAWRRPQMYYKNTPVNAPFIILSCWLYNELNETKYLEWAMKTYEWQTKVLVREDGFVEDGINRLEDGTIDYEWKFTYNQGVYIGANLELYRITKEAKYLDTANKTAAISLKELTEDGIFKDEGNGGDEGLFKGIFYRYFTDLIEETANKTYRDFVLNSCQILVENAKLDGYLLMGMNWKEKPSGKIPYSAELSGMIALEMAAKLELEHHHHHH	not failed
MSDDNSHSSDTVNSKKGFFSLLLSQLFHGEPKNRDELLALIRDSGQNELIDEDTRDMLEGVMDIADQRVRDIMIPRSQMITLKRNQTLDECLDVIIESAHSRFPVISEDKDHIEGILMAKDLLPFMRSDAEAFSMDKVLRTAVVVPESKRVDRMLKEFRSQRYHMAIVIDEFGGVSGLVTIEDILELIVGEIEDEYDEEDDIDFRQLSRHTWTIRALASIEDFNDAFGTHFSDEEVDTIGGLVMQAFGHLPARGETIDIDGYQFKVAMADSRRIIQVHVRIPDDSPQPKLDE	not failed
MVVTPLIVLLVSVLGYANLNSTELGKLKLNRLVPSRLAITLFISGTVILFGAVFATFLLLLLWGLITLVVSGSLSSAWVAMQTLTGSPGGVEPDKSSVLLLFTIGLVISFLSVTKFQSKADANWKQNNSKFLIHKLVDDELELFLLRALEMDDFIPHNGDESPDKRMLVRVVLSNRKVYIGNLIRCDITRGVCSNIVLVPMHSGYQDESTLELQLTEHYEKHYSAELSSDATELQIKDFLNQYSLTIPVHHLVTASLFDLTAYQKFLTEKLNSM	failed
MRTEPQPLHLPVFRAILASMGEGIIFADADDRIRYINAAAEDIRGIIAGNYLGRSIVSIHSPASEGRIRRLIAGLKGGDIPFSTRVIHVREKIFENSYYPIRNENGIYEGTLLISRDITEKELLKEENNSLREQVRADFACGGMIGKSHAMEPVFHMIRATAALDSTILISGESGTGKELVACAIHQMSPRHKNPFVKVNCAALPETLLESELFGHERGAFTGAVRERKGKFEQAHLGTIFLDEIGEMPLAAQAKLLRVIQGKTLERIGGNREIAVDVRIIAATNKDLRREVERGAFREDLFYRLNVIPIHLPPLRERREDILPLAEHFLSVYAERMRKPVHCIAPDARKALLDYDYPGNVRELENAIERGVALSMGETITLADLAPYFVTGASAAPAGAALPKEPPTATLSRAVSVAEQEAIREALQTTGNRKGVAAKLLGISRKTLWEKLKQMERT	failed
MIVFKAENLSVGYNGVKAVSNINFSAKQGEIICLLGPNGAGKTTIIRTLSGLLPPIEGEIHINGKSLSTINKKLLAQTLSVVLTEKPSFDVMTAFDVVSLGRFPHTGFFGTITKEHEIKVVEALKTVGALNLIDKYFHILSDGERQKVMLARALVQEPQIIILDEPTTHLDINHKIELLNTLKNLSRTAKLTVILSLHEIDLALKYCDKVMLVENKKVLSFGSPETTVNGETINKLYGIKNASFNPITSSIELKNSEKSNIYVIGGCGFGTPIYRLLSKYNLGFSTGILHENDIDYETAKTMSLRLQSEKPFQKISKISFEKALAAVASSDIIIDSGFPIGETNEKNLNLLNYAVEKNKRVITFRKYFNSTMSYCSNKDALIDFILRLEHHHHHH	failed
